Measurements published in publication PMC11188183.

How the values were obtained:
[1] = target: kinesin family member C1 (KIFC1) (human) (UniProt Q9BW19)
[2] = target: kinesin family member C1 (KIFC1) (human) (UniProt Q9BW19); assay: affinity purification with mass spectrometry; anti-KIFC1 antibody (Abcam ab172620) crosslinked to magnetic beads; nuclear lysate of HCC1806 (AA) cells; LC-MS/MS of the eluate
[3] = target: kinesin family member C1 (KIFC1) (human) (UniProt Q9BW19); assay: affinity purification with mass spectrometry; anti-KIFC1 antibody (Abcam ab172620) crosslinked to magnetic beads; nuclear lysate of MDA-MB-468 (AA) cells; LC-MS/MS of the eluate

Sequence of UniProt Q9BW19 (Q9BW19 whole entry): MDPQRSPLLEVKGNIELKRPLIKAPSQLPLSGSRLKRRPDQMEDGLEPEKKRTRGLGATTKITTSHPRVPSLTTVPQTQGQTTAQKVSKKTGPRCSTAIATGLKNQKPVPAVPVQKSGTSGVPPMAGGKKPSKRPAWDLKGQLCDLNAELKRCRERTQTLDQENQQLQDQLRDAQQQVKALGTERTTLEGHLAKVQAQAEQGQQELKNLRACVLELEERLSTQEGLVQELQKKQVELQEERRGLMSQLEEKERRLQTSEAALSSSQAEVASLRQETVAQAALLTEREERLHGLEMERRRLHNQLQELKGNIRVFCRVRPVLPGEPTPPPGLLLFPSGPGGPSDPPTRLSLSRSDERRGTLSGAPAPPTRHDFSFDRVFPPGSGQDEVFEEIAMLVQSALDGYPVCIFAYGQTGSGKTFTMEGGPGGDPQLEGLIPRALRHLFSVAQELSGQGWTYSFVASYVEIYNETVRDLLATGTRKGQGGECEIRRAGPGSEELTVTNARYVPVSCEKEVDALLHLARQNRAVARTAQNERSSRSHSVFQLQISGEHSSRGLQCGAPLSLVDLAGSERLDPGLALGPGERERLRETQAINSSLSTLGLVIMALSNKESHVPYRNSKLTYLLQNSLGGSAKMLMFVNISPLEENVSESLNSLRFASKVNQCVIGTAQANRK

BrdU cell proliferation of AA TNBC cells treated with CW069 + blebbistatin [1]: 1.5 fold
relative abundance of MYH9 in the nKIFC1 immunoprecipitate, fold over MDA-MB-231 [2]: 1.6 fold
relative abundance of MYH9 in the nKIFC1 immunoprecipitate, fold over MDA-MB-231 [3]: 1.8 fold
Substance: myosin heavy chain 9 (MYH9) (from UniProt P35579 1-1960) (natural protein)
